# Data taken from patent US20260265697A1, “COMPOSITIONS AND METHODS OF PREPARING AIRWAY CELLS” (Yale University, priority 2014, published 2026).
# B1: activin A (protein, UniProt P08476 311-426, looked up)
# Inhibin beta A chain: GLECDGKVNICCKKQFFVSFKDIGWNDWIIAPSGYHANYCEGECPSHIAGTSGSSLSFHSTVINHYRMRGHSPFANLKSCCVPTKLRPMSMLYYDDGQNIIKKDIQNMIVEECGCS
# modifications: Inhibin beta A chain
# notes: agent that induces differentiation of iPS cells to definitive endoderm cells
# Tests used:
# human iPS cells = assay: Differentiation of human iPS cells to definitive endoderm (DE), flow cytometry at day 5; type: cell-based
# Protocol: iPS cells were first differentiated towards definitive endoderm (DE). DE cells were initiated under conditions described previously. Briefly, iPS cells were cultured in RPMI 1640 medium supplemented with 100 ng/ml activin A, 2 mM L-glutamine and 1% antibiotic-antimycotic for 48 hours. Then, 1×B27 supplement and 0.5 mM sodium butyrate were added into the same medium and iPS cells were cultured in this medium for 3 days with daily medium changes.
# (§1) For flow cytometry, cells were fixed with the fixation solution from the Fixation/Permeabilization kit (BD Biosciences), and stained with primary and detection antibodies as described by the manufacturer. Briefly cells were dissociated into single-cell suspensions by incubation with 0.25% trypsin for 2 min. The dissociated cells were resuspended (0.5×10^6 cells) in 250 μl of fixation/permeabilization solution, kept on ice for 20 min, and washed twice with Perm/Wash buffer. After blocking with blocking solution for 30 min on ice, the cells were incubated with corresponding primary antibody in the blocking solution for 30 min on ice. The cells were resuspended in 350 μl of Perm/Wash buffer after incubation with corresponding conjugated secondary for 30 min on ice, washed twice, and analyzed by flow cytometry.
# Human iPS cells were differentiated to DE cells using serum free conditions (FIG. 1). By exposing iPS cells to saturating concentrations of activin A, greater than 85% endodermal cells were generated. […] 89% of cells were positive for c-kit (FIG. 2A), 91% positive for SOX17 (FIG. 2C), 93% positive for FOXA2 (FIG. 2B), and 88% of the cells expressed the endoderm surface marker CXCR4 (FIG. 2D) in clone C1.
# [1] = tested on: iPS cell-derived DE cells; assay: Anterior foregut endoderm (AFE) differentiation of DE cells, FOXA2+SOX2+ cells by flow cytometry; type: cell-based, human; conditions: day 7, flow cytometry, FIG. 3A
# Protocol: (§2) Subsequently, the DE cells were trypsinized and replated on human ECM protein coated plates and were differentiated to anterior foregut endoderm (AFE) by exposing them sequentially between days d5 to d7 to combinations of the small molecule inhibitors in IMDM with 10% FBS, 2 mM L-glutamine, 1 mM nonessential amino acids, 1% antibiotic-antimycotic.
# as §1, with “After blocking with blocking solution for 30 min on ice, the cells were incubated with corresponding primary antibody in the blocking solution for 30 min on ice.” left out, “cytometry. […]” for “cytometry.”
# BMP4 signaling is required for lung specification and an increase in bFGF and WNT concentration increases NKX2.1^+immature lung progenitors. […] The numbers of cells double positive for FOXA2^+SOX2^+anterior endoderm cells were quantified out of the total FOXA2^+endoderm cells by flow cytometry.
# [2] = tested on: iPS cell-derived DE cells; assay: Lung endoderm specification of DE cells, NKX2.1+ and NKX2.1+FOXA2+ cells; type: cell-based, human; conditions: FIG. 3B
# Protocol: as §2
# Then AFE cells were maintained in lung endoderm differentiation medium consisting of IMDM with 20% FBS, 2 mM L-glutamine, 1 mM nonessential amino acids, 1% antibiotic-antimycotic, retinoic acid (0.5 μM), bFGF (10 ng/ml), BMP4 (10 ng/ml), Wnt3a (100 ng/ml), and KGF (10 ng/ml each) for 5 days. […]
# For flow cytometry, cells were fixed with the fixation solution from the Fixation/Permeabilization kit (BD Biosciences), and stained with primary and detection antibodies as described by the manufacturer. […] The cells were resuspended in 350 μl of Perm/Wash buffer after incubation with corresponding conjugated secondary for 30 min on ice, washed twice, and analyzed by flow cytometry.
# NKX2.1^+is the earliest marker of cells that distinguish future lung from other derivatives of the foregut endoderm. […] The percentages of NKX2.1^+ cells were quantified as percentages of the total cells present. […]
# [3] = day 5, flow cytometry, clone C1
molecule,measurement,setting,value
B1,cells expressing endoderm surface marker CXCR4,human iPS cells; [3],88%
same,cells positive for FOXA2,human iPS cells; [3],93%
same,cells positive for SOX17,human iPS cells; [3],91%
same,cells positive for c-kit,human iPS cells; [3],89%
same,endodermal cells generated,"human iPS cells; saturating concentrations of activin A, serum free conditions",greater than 85%
same,number of FOXA2+SOX2+ anterior endoderm cells out of total FOXA2+ endoderm cells,[1],rare
same,number of NKX2.1+ cells (percentage of total cells),[2],few
